Source: publication PMC8699594, “Improving the Substrate Affinity and Catalytic Efficiency of β-Glucosidase Bgl3A from Talaromyces leycettanus JCM12802 by Rational Design” (Biomolecules, 2021)

How the values were obtained:
Bgl3A [1] = target: T1, Bgl3A (Evansstolkia leycettana, UniProt A0A1B0VFN7); assay: glucose release (GOD-POD), Michaelis-Menten fit; format: biochemical; details: read-out: Cellobiose / Km; 75 °C, pH 4.5, Na2HPO4-citric acid buffer
T1 construct: no tag mentioned

Bgl3A [2] = target: T1, Bgl3A; assay: p-nitrophenol release at […] nm, Michaelis-Menten fit; format: biochemical; details: read-out: pNPG / Km; 75 °C, pH 4.5, Na2HPO4-citric acid buffer
purified protein = substrate: O=[N+]([O-])c1ccc(O[C@@H]2O[C@H](CO)[C@@H](O)[C@H](O)[C@H]2O)cc1; assay: purified protein; details: 75 °C, pH 4.5, Na2HPO4-citric acid buffer

T1 sequence (A0A1B0VFN7 entry or part of it): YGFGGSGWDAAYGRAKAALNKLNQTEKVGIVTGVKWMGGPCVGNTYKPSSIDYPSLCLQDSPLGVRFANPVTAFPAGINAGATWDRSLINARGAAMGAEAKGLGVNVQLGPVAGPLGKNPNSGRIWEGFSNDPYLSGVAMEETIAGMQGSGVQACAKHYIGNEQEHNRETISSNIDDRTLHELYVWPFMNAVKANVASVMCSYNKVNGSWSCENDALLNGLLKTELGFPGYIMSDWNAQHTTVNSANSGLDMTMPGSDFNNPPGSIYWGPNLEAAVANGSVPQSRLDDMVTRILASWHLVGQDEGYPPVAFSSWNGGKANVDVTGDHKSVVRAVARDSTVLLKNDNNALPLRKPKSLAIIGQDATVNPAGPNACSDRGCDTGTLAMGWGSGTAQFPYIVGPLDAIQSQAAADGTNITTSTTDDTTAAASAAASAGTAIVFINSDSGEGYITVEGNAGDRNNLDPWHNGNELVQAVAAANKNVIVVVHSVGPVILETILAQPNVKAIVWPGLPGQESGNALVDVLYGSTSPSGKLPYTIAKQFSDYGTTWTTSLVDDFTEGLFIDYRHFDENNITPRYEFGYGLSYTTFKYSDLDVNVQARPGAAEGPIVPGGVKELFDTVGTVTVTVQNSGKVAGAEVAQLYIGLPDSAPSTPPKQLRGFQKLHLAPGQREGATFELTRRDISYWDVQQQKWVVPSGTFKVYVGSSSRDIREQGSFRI

Km (Bgl3A [1]) [µM] | Km (Bgl3A [2]) [µM] | Molecule | Km (purified protein) [µM] | kcat (purified protein) [s⁻¹] | kcat/Km (purified protein) [M⁻¹ s⁻¹]
10400 ± 400 | – | OC[C@H]1O[C@@H](O[C@H]2[C@H](O)[C@@H](O)C(O)O[C@@H]2CO)[C@H](O)[C@@H](O)[C@@H]1O (some centres unmarked) [cellobiose] | – | – | –
– | 180 ± 30 | O=[N+]([O-])c1ccc(O[C@@H]2O[C@H](CO)[C@@H](O)[C@H](O)[C@H]2O)cc1 [4-nitrophenyl β-D-glucopyranoside] | – | – | –
– | – | Bgl3A (Evansstolkia leycettana; F86Y) (protein) YGFGGSGWDAAYGRAKAALNKLNQTEKVGIVTGVKWMGGPCVGNTYKPSSIDYPSLCLQDSPLGVRYANPVTAFPAGINAGATWDRSLINARGAAMGAEAKGLGVNVQLGPVAGPLGKNPNSGRIWEGFSNDPYLSGVAMEETIAGMQGSGVQACAKHYIGNEQEHNRETISSNIDDRTLHELYVWPFMNAVKANVASVMCSYNKVNGSWSCENDALLNGLLKTELGFPGYIMSDWNAQHTTVNSANSGLDMTMPGSDFNNPPGSIYWGPNLEAAVANGSVPQSRLDDMVTRILASWHLVGQDEGYPPVAFSSWNGGKANVDVTGDHKSVVRAVARDSTVLLKNDNNALPLRKPKSLAIIGQDATVNPAGPNACSDRGCDTGTLAMGWGSGTAQFPYIVGPLDAIQSQAAADGTNITTSTTDDTTAAASAAASAGTAIVFINSDSGEGYITVEGNAGDRNNLDPWHNGNELVQAVAAANKNVIVVVHSVGPVILETILAQPNVKAIVWPGLPGQESGNALVDVLYGSTSPSGKLPYTIAKQFSDYGTTWTTSLVDDFTEGLFIDYRHFDENNITPRYEFGYGLSYTTFKYSDLDVNVQARPGAAEGPIVPGGVKELFDTVGTVTVTVQNSGKVAGAEVAQLYIGLPDSAPSTPPKQLRGFQKLHLAPGQREGATFELTRRDISYWDVQQQKWVVPSGTFKVYVGSSSRDIREQGSFRI | 240 ± 20 | 1770 | 7.45e+06
– | – | Bgl3A (Evansstolkia leycettana; M56N) (protein) YGFGGSGWDAAYGRAKAALNKLNQTEKVGIVTGVKWNGGPCVGNTYKPSSIDYPSLCLQDSPLGVRFANPVTAFPAGINAGATWDRSLINARGAAMGAEAKGLGVNVQLGPVAGPLGKNPNSGRIWEGFSNDPYLSGVAMEETIAGMQGSGVQACAKHYIGNEQEHNRETISSNIDDRTLHELYVWPFMNAVKANVASVMCSYNKVNGSWSCENDALLNGLLKTELGFPGYIMSDWNAQHTTVNSANSGLDMTMPGSDFNNPPGSIYWGPNLEAAVANGSVPQSRLDDMVTRILASWHLVGQDEGYPPVAFSSWNGGKANVDVTGDHKSVVRAVARDSTVLLKNDNNALPLRKPKSLAIIGQDATVNPAGPNACSDRGCDTGTLAMGWGSGTAQFPYIVGPLDAIQSQAAADGTNITTSTTDDTTAAASAAASAGTAIVFINSDSGEGYITVEGNAGDRNNLDPWHNGNELVQAVAAANKNVIVVVHSVGPVILETILAQPNVKAIVWPGLPGQESGNALVDVLYGSTSPSGKLPYTIAKQFSDYGTTWTTSLVDDFTEGLFIDYRHFDENNITPRYEFGYGLSYTTFKYSDLDVNVQARPGAAEGPIVPGGVKELFDTVGTVTVTVQNSGKVAGAEVAQLYIGLPDSAPSTPPKQLRGFQKLHLAPGQREGATFELTRRDISYWDVQQQKWVVPSGTFKVYVGSSSRDIREQGSFRI | 590 ± 70 | 1070 | 1.79e+06
– | – | Bgl3A (Evansstolkia leycettana; E188Q) (protein) YGFGGSGWDAAYGRAKAALNKLNQTEKVGIVTGVKWMGGPCVGNTYKPSSIDYPSLCLQDSPLGVRFANPVTAFPAGINAGATWDRSLINARGAAMGAEAKGLGVNVQLGPVAGPLGKNPNSGRIWEGFSNDPYLSGVAMEETIAGMQGSGVQACAKHYIGNEQEHNRQTISSNIDDRTLHELYVWPFMNAVKANVASVMCSYNKVNGSWSCENDALLNGLLKTELGFPGYIMSDWNAQHTTVNSANSGLDMTMPGSDFNNPPGSIYWGPNLEAAVANGSVPQSRLDDMVTRILASWHLVGQDEGYPPVAFSSWNGGKANVDVTGDHKSVVRAVARDSTVLLKNDNNALPLRKPKSLAIIGQDATVNPAGPNACSDRGCDTGTLAMGWGSGTAQFPYIVGPLDAIQSQAAADGTNITTSTTDDTTAAASAAASAGTAIVFINSDSGEGYITVEGNAGDRNNLDPWHNGNELVQAVAAANKNVIVVVHSVGPVILETILAQPNVKAIVWPGLPGQESGNALVDVLYGSTSPSGKLPYTIAKQFSDYGTTWTTSLVDDFTEGLFIDYRHFDENNITPRYEFGYGLSYTTFKYSDLDVNVQARPGAAEGPIVPGGVKELFDTVGTVTVTVQNSGKVAGAEVAQLYIGLPDSAPSTPPKQLRGFQKLHLAPGQREGATFELTRRDISYWDVQQQKWVVPSGTFKVYVGSSSRDIREQGSFRI | 210 ± 30 | 1740 | 8.39e+06
– | – | Bgl3A (Evansstolkia leycettana; M56E) (protein) YGFGGSGWDAAYGRAKAALNKLNQTEKVGIVTGVKWEGGPCVGNTYKPSSIDYPSLCLQDSPLGVRFANPVTAFPAGINAGATWDRSLINARGAAMGAEAKGLGVNVQLGPVAGPLGKNPNSGRIWEGFSNDPYLSGVAMEETIAGMQGSGVQACAKHYIGNEQEHNRETISSNIDDRTLHELYVWPFMNAVKANVASVMCSYNKVNGSWSCENDALLNGLLKTELGFPGYIMSDWNAQHTTVNSANSGLDMTMPGSDFNNPPGSIYWGPNLEAAVANGSVPQSRLDDMVTRILASWHLVGQDEGYPPVAFSSWNGGKANVDVTGDHKSVVRAVARDSTVLLKNDNNALPLRKPKSLAIIGQDATVNPAGPNACSDRGCDTGTLAMGWGSGTAQFPYIVGPLDAIQSQAAADGTNITTSTTDDTTAAASAAASAGTAIVFINSDSGEGYITVEGNAGDRNNLDPWHNGNELVQAVAAANKNVIVVVHSVGPVILETILAQPNVKAIVWPGLPGQESGNALVDVLYGSTSPSGKLPYTIAKQFSDYGTTWTTSLVDDFTEGLFIDYRHFDENNITPRYEFGYGLSYTTFKYSDLDVNVQARPGAAEGPIVPGGVKELFDTVGTVTVTVQNSGKVAGAEVAQLYIGLPDSAPSTPPKQLRGFQKLHLAPGQREGATFELTRRDISYWDVQQQKWVVPSGTFKVYVGSSSRDIREQGSFRI | 250 ± 30 | 1800 | 7.09e+06
